Publication PMC3702670 (Nature structural & molecular biology, 2013)
Like-named read-outs stand apart in the source and are kept apart here.

Legend:
GR DBD A477T [1] = target: T1, GR DBD A477T (rat, UniProt P06536 440-525, A477T); assay: NMR
GR DBD WT [2] = target: T2, GR DBD WT (rat, UniProt P06536 440-525); assay: NMR
GR DBD WT [3] = target: T2, GR DBD WT; assay: SPR
GR DBD WT [4] = target: T2, GR DBD WT; assay: NMR; remark: listed apart in the source
[…] = target: the molecule itself; assay: […]
SPR = target: the molecule itself; assay: SPR
GR DBD A477T [5] = target: T1, GR DBD A477T; assay: NMR; remark: listed apart in the source
GR DBD WT [6] = target: T2, GR DBD WT; assay: NMR; remark: listed apart in the source

B1: Fkbp5 GBS (dsDNA)
DNA 1: GTACAGAACAGGGTGTTCTTCGAC
DNA 2: GTCGAAGAACACCCTGTTCTGTAC
- binding result (GR DBD A477T [1]): binds
- binding result (GR DBD WT [2]): binds

B2: Pal-R GBS (dsDNA)
DNA 1: GTACAGAACATTTTGTTCTTCGAC
DNA 2: GTCGAAGAACAAAATGTTCTGTAC
- binding result (GR DBD WT [3]): binds

B3: Gilz GBS (dsDNA)
DNA 1: GTACAGAACATTGGGTTCCTCGAC
DNA 2: GTCGAGGAACCCAATGTTCTGTAC
- binding result (GR DBD WT [4]): binds

B4: rat glucocorticoid receptor DNA binding domain, wild type (domain or fragment)
chain: CLVCSDEASGCHYGVLTCGSCKVFFKRAVEGQHNYLCAGRNDCIIDKIRRKNCPACRYRKCLQAGMNLEARKTKKKIKGIQQATAG
- binding result ([…]): binds

B5: rat glucocorticoid receptor DNA binding domain, [change] mutant (domain or fragment)
chain: CLVCSDEASGCHYGVLTCGSCKVFFKRAVEGQHNYLCTGRNDCIIDKIRRKNCPACRYRKCLQAGMNLEARKTKKKIKGIQQATAG
- binding result (SPR): binds

B6: Sgk-ggg GBS (dsDNA)
DNA 1: GTACAGAACAGGGTGTCCGTCGAC
DNA 2: GTCGACGGACACCCTGTTCTGTAC
- binding result (GR DBD WT [2]): binds

B7: Pal-ttg GBS (dsDNA)
DNA 1: GTACAGAACATTGTGTTCTTCGAC
DNA 2: GTCGAAGAACACAATGTTCTGTAC
- binding result (GR DBD WT [4]): binds

B8: Sgk GBS (dsDNA)
DNA 1: GTACAGAACATTTTGTCCGTCGAC
DNA 2: GTCGACGGACAAAATGTTCTGTAC
- binding result (GR DBD WT [2]): binds
- binding result (GR DBD A477T [5]): binds

B9: Gha GBS (dsDNA)
DNA 1: GTACGGAACATAATGTTCCTCGAC
DNA 2: GTCGAGGAACATTATGTTCCGTAC
- binding result (GR DBD A477T [5]): binds
- binding result (GR DBD WT [6]): binds
